B1: Guanine nucleotide-binding protein alpha-1 subunit (Saccharomyces cerevisiae), P08539 (parent)
chain: MGCTVSTQTIGDESDPFLQNKRANDVIEQSLQLEKQRDKNEIKLLLLGAGESGKSTVLKQLKLLHQGGFSHQERLQYAQVIWADAIQSMKILIIQARKLGIQLDCDDPINNKDLFACKRILLKAKALDYINASVAGGSDFLNDYVLKYSERYETRRRVQSTGRAKAAFDEDGNISNVKSDTDRDAETVTQNEDADRNNSSRINLQDICKDLNQEGDDQMFVRKTSREIQGQNRRNLIHEDIAKAIKQLWNNDKGIKQCFARSNEFQLEGSAAYYFDNIEKFASPNYVCTDEDILKGRIKTTGITETEFNIGSSKFKVLDAGGQRSERKKWIHCFEGITAVLFVLAMSEYDQMLFEDERVNRMHESIMLFDTLLNSKWFKDTPFILFLNKIDLFEEKVKSMPIRKYFPDYQGRVGDAEAGLKYFEKIFLSLNKTNKPIYVKRTCATDTQTMKFVLSAVTDLIIQQNLKKIGII
partner: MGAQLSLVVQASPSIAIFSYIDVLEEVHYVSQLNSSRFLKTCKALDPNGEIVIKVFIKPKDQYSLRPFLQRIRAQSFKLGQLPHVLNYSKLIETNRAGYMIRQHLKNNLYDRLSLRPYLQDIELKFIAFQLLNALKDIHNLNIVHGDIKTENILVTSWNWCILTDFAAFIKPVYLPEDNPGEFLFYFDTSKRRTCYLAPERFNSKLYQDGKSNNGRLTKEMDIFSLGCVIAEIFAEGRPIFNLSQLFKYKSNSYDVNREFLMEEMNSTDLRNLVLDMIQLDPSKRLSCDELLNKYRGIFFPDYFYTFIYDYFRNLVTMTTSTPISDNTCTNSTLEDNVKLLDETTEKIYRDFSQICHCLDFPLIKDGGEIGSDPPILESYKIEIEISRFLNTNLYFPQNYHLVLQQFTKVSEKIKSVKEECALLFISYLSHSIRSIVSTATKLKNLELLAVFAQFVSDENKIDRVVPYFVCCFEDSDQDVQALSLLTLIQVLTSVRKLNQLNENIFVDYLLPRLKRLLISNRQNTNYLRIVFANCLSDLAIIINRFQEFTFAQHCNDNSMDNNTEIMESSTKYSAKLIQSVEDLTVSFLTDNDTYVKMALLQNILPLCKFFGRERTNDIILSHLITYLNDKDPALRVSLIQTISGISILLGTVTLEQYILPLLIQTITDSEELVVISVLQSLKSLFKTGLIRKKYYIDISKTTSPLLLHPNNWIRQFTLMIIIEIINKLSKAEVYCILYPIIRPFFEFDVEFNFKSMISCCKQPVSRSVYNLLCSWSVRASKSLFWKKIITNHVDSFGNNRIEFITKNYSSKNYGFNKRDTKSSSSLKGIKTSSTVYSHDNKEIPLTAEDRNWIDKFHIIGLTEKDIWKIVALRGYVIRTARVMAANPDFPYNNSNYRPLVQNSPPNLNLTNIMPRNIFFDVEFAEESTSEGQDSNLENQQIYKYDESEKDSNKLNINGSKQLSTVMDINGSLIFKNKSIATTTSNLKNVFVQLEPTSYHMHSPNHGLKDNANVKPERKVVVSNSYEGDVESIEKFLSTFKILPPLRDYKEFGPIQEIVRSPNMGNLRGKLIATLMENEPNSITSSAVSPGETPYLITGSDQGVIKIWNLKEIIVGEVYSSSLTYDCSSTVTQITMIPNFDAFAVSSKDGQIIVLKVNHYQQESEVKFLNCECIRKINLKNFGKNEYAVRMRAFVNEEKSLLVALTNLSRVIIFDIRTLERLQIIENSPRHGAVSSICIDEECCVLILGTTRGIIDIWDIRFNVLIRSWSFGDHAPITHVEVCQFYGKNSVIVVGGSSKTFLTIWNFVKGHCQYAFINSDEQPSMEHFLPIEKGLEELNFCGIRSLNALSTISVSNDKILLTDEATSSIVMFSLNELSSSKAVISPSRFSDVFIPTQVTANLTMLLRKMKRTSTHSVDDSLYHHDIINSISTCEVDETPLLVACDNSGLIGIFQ

The variants in the experiment derive from B1. The settings on record: with vps15_yeast VPS15, P22219.
Regarding Q323L, the “effect of a mutation on the interaction” value is “decreasing interaction”.

Values taken from IntAct's records for PubMed 16839886.
